One experiment deals with T1, P-Villin (Homo sapiens, UniProt P09327).
T1 construct: made in house; host or cells: E. coli TKX1 (pGEX2T vector)
T1 sequence (P09327 1-827): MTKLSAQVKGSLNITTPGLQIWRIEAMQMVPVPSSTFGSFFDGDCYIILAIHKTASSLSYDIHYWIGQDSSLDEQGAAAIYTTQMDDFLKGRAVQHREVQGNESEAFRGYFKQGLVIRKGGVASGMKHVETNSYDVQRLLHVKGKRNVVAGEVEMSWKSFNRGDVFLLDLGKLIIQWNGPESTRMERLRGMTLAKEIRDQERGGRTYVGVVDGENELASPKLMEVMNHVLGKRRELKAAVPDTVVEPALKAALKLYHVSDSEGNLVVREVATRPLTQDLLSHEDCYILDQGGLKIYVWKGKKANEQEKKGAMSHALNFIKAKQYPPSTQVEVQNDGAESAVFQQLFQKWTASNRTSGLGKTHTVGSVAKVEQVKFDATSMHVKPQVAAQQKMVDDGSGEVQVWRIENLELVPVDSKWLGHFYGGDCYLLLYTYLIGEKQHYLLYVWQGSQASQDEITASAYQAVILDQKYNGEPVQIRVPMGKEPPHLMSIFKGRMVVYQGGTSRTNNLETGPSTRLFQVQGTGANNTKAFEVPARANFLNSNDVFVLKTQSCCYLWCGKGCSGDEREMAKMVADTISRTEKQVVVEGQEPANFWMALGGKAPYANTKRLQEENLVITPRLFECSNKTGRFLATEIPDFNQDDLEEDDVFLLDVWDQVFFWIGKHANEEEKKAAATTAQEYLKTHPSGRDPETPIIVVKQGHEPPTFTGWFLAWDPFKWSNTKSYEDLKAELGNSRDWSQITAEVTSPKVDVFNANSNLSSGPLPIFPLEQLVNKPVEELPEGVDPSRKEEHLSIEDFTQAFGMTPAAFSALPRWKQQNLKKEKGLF
Kind of experiment: Multiplate ELISA binding of GST-Jak3 and truncated Jak3 fusion proteins to P-Villin. Here is the method: Absorbance values for wells containing P-Villin contacted with GST alone were used as control, and data presented on the ordinate axis represent absorbance values after subtraction of control values.
(§1) To determine the ability of Jak3 to interact with natural compounds including biomolecules, binding studies were performed in a multiplate using the cytoskeletal protein, Villin, known in the art to be a substrate for P-Jak3. Multiplates pre-coated with P-Villin were contacted with increasing concentrations of GST-P-Jak3 fusion protein (test samples) or GST alone (control sample). Binding levels were measured using GST antibody as the primary binding partner, horse radish peroxidase conjugated antibody as the secondary binding partner and 3,3′,5,5′-tetramethylbenzidine as the colorimetric substrate. Raw absorbance data for the control samples were subtracted from the absorbance for the test samples to obtain the corrected absorbance values.
To determine whether the kinase domains of Jak3 are critical for Villin binding, recombinant GST-truncated-Jak3 fusion proteins shown in FIGS. 2C-2E were expressed in BL21 (for non-phosphorylated proteins) or TKX1 (for phosphorylated proteins) cells, and purified. Multiplates pre-coated with P-Villin were contacted with these GST-tagged recombinant truncated-Jak3 or with GST-tagged recombinant WT-Jak3, and binding measured as described supra.

The target in experiment [1] is T2, GST-P-Jak3 fusion protein (Mus musculus, UniProt Q62137).
T2 construct: made in house; host or cells: E. coli TKX1 (pGEX-4T vector)
Nature of the experiment: Multiplate ELISA binding of P-Villin to GST-P-Jak3. On the procedure:
GST is the reporter protein and the primary binding partner is a GST antibody.
as §1
A general note: In an ELISA, binding on a coated surface is turned into a signal by an enzyme label.

T2 sequence (Q62137 with tags, fused parts or gaps): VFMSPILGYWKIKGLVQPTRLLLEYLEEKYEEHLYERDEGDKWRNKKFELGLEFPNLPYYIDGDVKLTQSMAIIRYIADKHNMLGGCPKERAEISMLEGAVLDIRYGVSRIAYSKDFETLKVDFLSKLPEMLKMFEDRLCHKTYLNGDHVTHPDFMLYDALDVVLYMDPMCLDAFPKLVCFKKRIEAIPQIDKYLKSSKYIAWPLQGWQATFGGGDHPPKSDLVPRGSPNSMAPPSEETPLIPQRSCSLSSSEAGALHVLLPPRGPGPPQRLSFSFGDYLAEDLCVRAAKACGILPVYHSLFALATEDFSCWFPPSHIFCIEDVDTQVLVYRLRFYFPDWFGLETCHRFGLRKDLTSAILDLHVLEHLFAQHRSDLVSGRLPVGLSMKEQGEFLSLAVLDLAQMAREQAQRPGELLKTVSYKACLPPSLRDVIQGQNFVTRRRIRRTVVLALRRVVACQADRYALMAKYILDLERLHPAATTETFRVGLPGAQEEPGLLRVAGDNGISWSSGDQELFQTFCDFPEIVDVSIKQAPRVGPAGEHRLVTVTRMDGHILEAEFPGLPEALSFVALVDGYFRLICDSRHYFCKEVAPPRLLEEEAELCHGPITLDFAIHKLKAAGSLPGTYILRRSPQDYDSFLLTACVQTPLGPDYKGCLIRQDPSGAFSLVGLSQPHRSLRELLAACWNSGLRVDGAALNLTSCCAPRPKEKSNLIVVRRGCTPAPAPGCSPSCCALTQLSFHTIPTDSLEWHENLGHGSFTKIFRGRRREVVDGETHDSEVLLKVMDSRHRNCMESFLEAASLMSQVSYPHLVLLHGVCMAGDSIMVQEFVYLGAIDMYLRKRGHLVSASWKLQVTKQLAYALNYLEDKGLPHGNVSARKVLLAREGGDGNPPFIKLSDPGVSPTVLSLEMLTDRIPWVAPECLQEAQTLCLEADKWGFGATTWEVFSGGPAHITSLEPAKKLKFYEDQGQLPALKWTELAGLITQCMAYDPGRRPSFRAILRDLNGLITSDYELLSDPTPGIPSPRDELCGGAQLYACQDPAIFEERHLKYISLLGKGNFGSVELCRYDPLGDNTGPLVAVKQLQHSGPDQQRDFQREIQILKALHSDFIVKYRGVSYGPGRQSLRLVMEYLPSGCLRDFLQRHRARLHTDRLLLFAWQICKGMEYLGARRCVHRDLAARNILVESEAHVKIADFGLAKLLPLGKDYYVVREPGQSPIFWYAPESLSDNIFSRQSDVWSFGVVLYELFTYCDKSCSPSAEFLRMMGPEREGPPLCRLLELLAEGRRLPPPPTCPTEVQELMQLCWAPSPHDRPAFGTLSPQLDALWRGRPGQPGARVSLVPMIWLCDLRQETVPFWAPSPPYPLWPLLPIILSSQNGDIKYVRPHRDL

As for “P-WT-Jak3: phosphorylated GST-WT-Jak3 fusion protein (SEQ ID NO: 11) expressed in TKX1”, the Kd (in general, the free concentration of one partner at which half of the binding sites on the other are occupied at equilibrium, for simple one-to-one binding) with P-Villin (plates pre-coated with P-Villin, read-out: dissociation constant (Kd)) turned out to be 23 nM.
As to “WT-Jak3: non-phosphorylated GST-WT-Jak3 fusion protein (SEQ ID NO. 7) expressed in BL21”, the “level of binding to P-Villin” value with P-Villin (FIG. 8A, GST-alone control subtracted) is reported as “relatively lower level of binding”.

B1: P-Villin: recombinant phosphorylated cytoskeletal protein Villin expressed in E. coli TKX1 (protein)
chain: T1 sequence (P09327 1-827)
Regarding B1, the Kd in experiment [1] (plates pre-coated with P-Villin, P-Jak3 0-400 nM, GST control subtracted, read-out: dissociation constant (Kd)) stood at 23 nM. In addition, in experiment [1] (rearranged Hill equation plot), the “Hill coefficient (h)” value was 3.7.

(Values after patent US9739779B2, “Methods of screening for Janus kinase 3 interacting compounds” (priority 2013, dated 2017).)
